# Experimental data as given in patent US20240270846A1 (published 2024).
# Biological target: T1, CD3 epsilon homodimer protein (UniProt P07766 23-126)
# T1 construct: also called CD3 (CD3 epsilon)
# Test: SPR Biacore T200, antibody over immobilised CD3e homodimer;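 also: CD3 epsilon homodimer amine-coupled on a CM4 chip, run at 25 °C in HBS-EP+, Z = bound amount of each single-residue H chain variant over that of the parent antibody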
# Protocol: An appropriate amount of CD3 epsilon homodimer protein was immobilized onto Sensor chip CM4 (GE Healthcare Japan Corp.) by the amine coupling method. Then, the antibody having an appropriate concentration was injected thereto as an analyte and allowed to interact with the CD3 epsilon homodimer protein on the sensor chip. Then, the sensor chip was regenerated by the injection of 10 mmol/L glycine-HCl (pH 1.5). The assay was conducted at 25 degrees C., and HBS-EP+(GE Healthcare Japan Corp.) was used as a running buffer. […] Each parameter was calculated using Biacore T200 Evaluation Software (GE Healthcare Japan Corp.).
# Specifically, when the amount of the antibody comprising CE115HA000 bound was defined as X and the amount of the H chain one-amino acid altered form bound was defined as Y, a value of Z (ratio of amounts bound)=Y/X was used.
# T1 sequence (P07766 23-126): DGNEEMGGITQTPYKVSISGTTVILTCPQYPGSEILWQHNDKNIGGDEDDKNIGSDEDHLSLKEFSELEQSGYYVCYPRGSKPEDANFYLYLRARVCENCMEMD
row,Binder,ratio of amounts bound (Z=Y/X vs CE115HA000)
1,"CE115HA000 K52bL one-arm antibody (antibody, human IgG1, kappa, L234A L235A, N297A, name in Kabat numbering, one-arm antibody) heavy: QVQLVESGGGVVQPGRSLRLSCAASGFTFSNAWMHWVRQAPGKGLEWVAQIKALSNNYATYYAESVKGRFTISRDDSKNSLYLQMNSLKTEDTAVYYCRYVHYGAYYGVDAWGQGTTVTVSSASTKGPSVFPLAPSSKSTSGGTAALGCLVKDYFPEPVTVSWNSGALTSGVHTFPAVLQSSGLYSLSSVVTVPSSSLGTQTYICNVNHKPSNTKVDKKVEPKSCDKTHTCPPCPAPEAAGGPSVFLFPPKPKDTLMISRTPEVTCVVVDVSHEDPEVKFNWYVDGVEVHNAKTKPREEQYASTYRVVSVLTVLHQDWLNGKEYKCKVSNKALPAPIEKTISKAKGQPREPQVYTLPPSRCELTKNQVSLSCAVKGFYPSDIAVEWESNGQPENNYKTTPPVLDSDGSFFLVSKLTVDKSRWQQGNVFSCSVMHEALHNHYTQKSLSLSPDYKDDDDK EPKSSDKTHTCPPCPAPELLGGPSVFLFPPKPKDTLMISRTPEVTCVVVDVSHEDPEVKFNWYVDGVEVHNAKTKPREEQYNSTYRVVSVLTVLHQDWLNGKEYKCKVSNKALPAPIEKTISKAKGQPREPQVCTLPPSRDELTKNQVSLWCLVKGFYPSDIAVEWESNGQPENNYKTTPPVLDSDGSFFLYSKLTVDKSRWQQGNVFSCSVMHEALHNRYTQKSLSLSP light: DIVMTQSPLSLPVTPGEPASISCRSSQSLVHSNRNTYLHWYQQKPGQAPRLLIYKVSNRFSGVPDRFSGSGSGTDFTLKISRVEAEDVGVYYCGQGTQVPYTFGQGTKLEIKRTVAAPSVFIFPPSDEQLKSGTASVVCLLNNFYPREAKVQWKVDNALQSGNSQESVTEQDSKDSTYSLSSTLTLSKADYEKHKVYACEVTHQGLSSPVTKSFNRGEC",0.61
2,"CE115HA000 K52bA one-arm antibody (antibody, human IgG1, kappa, L234A L235A, N297A, name in Kabat numbering, one-arm antibody) heavy: QVQLVESGGGVVQPGRSLRLSCAASGFTFSNAWMHWVRQAPGKGLEWVAQIKAASNNYATYYAESVKGRFTISRDDSKNSLYLQMNSLKTEDTAVYYCRYVHYGAYYGVDAWGQGTTVTVSSASTKGPSVFPLAPSSKSTSGGTAALGCLVKDYFPEPVTVSWNSGALTSGVHTFPAVLQSSGLYSLSSVVTVPSSSLGTQTYICNVNHKPSNTKVDKKVEPKSCDKTHTCPPCPAPEAAGGPSVFLFPPKPKDTLMISRTPEVTCVVVDVSHEDPEVKFNWYVDGVEVHNAKTKPREEQYASTYRVVSVLTVLHQDWLNGKEYKCKVSNKALPAPIEKTISKAKGQPREPQVYTLPPSRCELTKNQVSLSCAVKGFYPSDIAVEWESNGQPENNYKTTPPVLDSDGSFFLVSKLTVDKSRWQQGNVFSCSVMHEALHNHYTQKSLSLSPDYKDDDDK EPKSSDKTHTCPPCPAPELLGGPSVFLFPPKPKDTLMISRTPEVTCVVVDVSHEDPEVKFNWYVDGVEVHNAKTKPREEQYNSTYRVVSVLTVLHQDWLNGKEYKCKVSNKALPAPIEKTISKAKGQPREPQVCTLPPSRDELTKNQVSLWCLVKGFYPSDIAVEWESNGQPENNYKTTPPVLDSDGSFFLYSKLTVDKSRWQQGNVFSCSVMHEALHNRYTQKSLSLSP light: DIVMTQSPLSLPVTPGEPASISCRSSQSLVHSNRNTYLHWYQQKPGQAPRLLIYKVSNRFSGVPDRFSGSGSGTDFTLKISRVEAEDVGVYYCGQGTQVPYTFGQGTKLEIKRTVAAPSVFIFPPSDEQLKSGTASVVCLLNNFYPREAKVQWKVDNALQSGNSQESVTEQDSKDSTYSLSSTLTLSKADYEKHKVYACEVTHQGLSSPVTKSFNRGEC",0.67
3,"CE115HA000 K52bQ one-arm antibody (antibody, human IgG1, kappa, L234A L235A, N297A, name in Kabat numbering, one-arm antibody) heavy: QVQLVESGGGVVQPGRSLRLSCAASGFTFSNAWMHWVRQAPGKGLEWVAQIKAQSNNYATYYAESVKGRFTISRDDSKNSLYLQMNSLKTEDTAVYYCRYVHYGAYYGVDAWGQGTTVTVSSASTKGPSVFPLAPSSKSTSGGTAALGCLVKDYFPEPVTVSWNSGALTSGVHTFPAVLQSSGLYSLSSVVTVPSSSLGTQTYICNVNHKPSNTKVDKKVEPKSCDKTHTCPPCPAPEAAGGPSVFLFPPKPKDTLMISRTPEVTCVVVDVSHEDPEVKFNWYVDGVEVHNAKTKPREEQYASTYRVVSVLTVLHQDWLNGKEYKCKVSNKALPAPIEKTISKAKGQPREPQVYTLPPSRCELTKNQVSLSCAVKGFYPSDIAVEWESNGQPENNYKTTPPVLDSDGSFFLVSKLTVDKSRWQQGNVFSCSVMHEALHNHYTQKSLSLSPDYKDDDDK EPKSSDKTHTCPPCPAPELLGGPSVFLFPPKPKDTLMISRTPEVTCVVVDVSHEDPEVKFNWYVDGVEVHNAKTKPREEQYNSTYRVVSVLTVLHQDWLNGKEYKCKVSNKALPAPIEKTISKAKGQPREPQVCTLPPSRDELTKNQVSLWCLVKGFYPSDIAVEWESNGQPENNYKTTPPVLDSDGSFFLYSKLTVDKSRWQQGNVFSCSVMHEALHNRYTQKSLSLSP light: DIVMTQSPLSLPVTPGEPASISCRSSQSLVHSNRNTYLHWYQQKPGQAPRLLIYKVSNRFSGVPDRFSGSGSGTDFTLKISRVEAEDVGVYYCGQGTQVPYTFGQGTKLEIKRTVAAPSVFIFPPSDEQLKSGTASVVCLLNNFYPREAKVQWKVDNALQSGNSQESVTEQDSKDSTYSLSSTLTLSKADYEKHKVYACEVTHQGLSSPVTKSFNRGEC",0.6

# The remaining lines, values ahead:
row,ratio of amounts bound (Z=Y/X vs CE115HA000),Binder
1,0.18,"CE115HA000 K52Y one-arm antibody (antibody, human IgG1, kappa, L234A L235A, N297A, name in Kabat numbering, one-arm antibody) heavy: QVQLVESGGGVVQPGRSLRLSCAASGFTFSNAWMHWVRQAPGKGLEWVAQIYAKSNNYATYYAESVKGRFTISRDDSKNSLYLQMNSLKTEDTAVYYCRYVHYGAYYGVDAWGQGTTVTVSSASTKGPSVFPLAPSSKSTSGGTAALGCLVKDYFPEPVTVSWNSGALTSGVHTFPAVLQSSGLYSLSSVVTVPSSSLGTQTYICNVNHKPSNTKVDKKVEPKSCDKTHTCPPCPAPEAAGGPSVFLFPPKPKDTLMISRTPEVTCVVVDVSHEDPEVKFNWYVDGVEVHNAKTKPREEQYASTYRVVSVLTVLHQDWLNGKEYKCKVSNKALPAPIEKTISKAKGQPREPQVYTLPPSRCELTKNQVSLSCAVKGFYPSDIAVEWESNGQPENNYKTTPPVLDSDGSFFLVSKLTVDKSRWQQGNVFSCSVMHEALHNHYTQKSLSLSPDYKDDDDK EPKSSDKTHTCPPCPAPELLGGPSVFLFPPKPKDTLMISRTPEVTCVVVDVSHEDPEVKFNWYVDGVEVHNAKTKPREEQYNSTYRVVSVLTVLHQDWLNGKEYKCKVSNKALPAPIEKTISKAKGQPREPQVCTLPPSRDELTKNQVSLWCLVKGFYPSDIAVEWESNGQPENNYKTTPPVLDSDGSFFLYSKLTVDKSRWQQGNVFSCSVMHEALHNRYTQKSLSLSP light: DIVMTQSPLSLPVTPGEPASISCRSSQSLVHSNRNTYLHWYQQKPGQAPRLLIYKVSNRFSGVPDRFSGSGSGTDFTLKISRVEAEDVGVYYCGQGTQVPYTFGQGTKLEIKRTVAAPSVFIFPPSDEQLKSGTASVVCLLNNFYPREAKVQWKVDNALQSGNSQESVTEQDSKDSTYSLSSTLTLSKADYEKHKVYACEVTHQGLSSPVTKSFNRGEC"
2,0.27,"CE115HA000 K52bD one-arm antibody (antibody, human IgG1, kappa, L234A L235A, N297A, name in Kabat numbering, one-arm antibody) heavy: QVQLVESGGGVVQPGRSLRLSCAASGFTFSNAWMHWVRQAPGKGLEWVAQIKADSNNYATYYAESVKGRFTISRDDSKNSLYLQMNSLKTEDTAVYYCRYVHYGAYYGVDAWGQGTTVTVSSASTKGPSVFPLAPSSKSTSGGTAALGCLVKDYFPEPVTVSWNSGALTSGVHTFPAVLQSSGLYSLSSVVTVPSSSLGTQTYICNVNHKPSNTKVDKKVEPKSCDKTHTCPPCPAPEAAGGPSVFLFPPKPKDTLMISRTPEVTCVVVDVSHEDPEVKFNWYVDGVEVHNAKTKPREEQYASTYRVVSVLTVLHQDWLNGKEYKCKVSNKALPAPIEKTISKAKGQPREPQVYTLPPSRCELTKNQVSLSCAVKGFYPSDIAVEWESNGQPENNYKTTPPVLDSDGSFFLVSKLTVDKSRWQQGNVFSCSVMHEALHNHYTQKSLSLSPDYKDDDDK EPKSSDKTHTCPPCPAPELLGGPSVFLFPPKPKDTLMISRTPEVTCVVVDVSHEDPEVKFNWYVDGVEVHNAKTKPREEQYNSTYRVVSVLTVLHQDWLNGKEYKCKVSNKALPAPIEKTISKAKGQPREPQVCTLPPSRDELTKNQVSLWCLVKGFYPSDIAVEWESNGQPENNYKTTPPVLDSDGSFFLYSKLTVDKSRWQQGNVFSCSVMHEALHNRYTQKSLSLSP light: DIVMTQSPLSLPVTPGEPASISCRSSQSLVHSNRNTYLHWYQQKPGQAPRLLIYKVSNRFSGVPDRFSGSGSGTDFTLKISRVEAEDVGVYYCGQGTQVPYTFGQGTKLEIKRTVAAPSVFIFPPSDEQLKSGTASVVCLLNNFYPREAKVQWKVDNALQSGNSQESVTEQDSKDSTYSLSSTLTLSKADYEKHKVYACEVTHQGLSSPVTKSFNRGEC"
3,0.27,"CE115HA000 K52bN one-arm antibody (antibody, human IgG1, kappa, L234A L235A, N297A, name in Kabat numbering, one-arm antibody) heavy: QVQLVESGGGVVQPGRSLRLSCAASGFTFSNAWMHWVRQAPGKGLEWVAQIKANSNNYATYYAESVKGRFTISRDDSKNSLYLQMNSLKTEDTAVYYCRYVHYGAYYGVDAWGQGTTVTVSSASTKGPSVFPLAPSSKSTSGGTAALGCLVKDYFPEPVTVSWNSGALTSGVHTFPAVLQSSGLYSLSSVVTVPSSSLGTQTYICNVNHKPSNTKVDKKVEPKSCDKTHTCPPCPAPEAAGGPSVFLFPPKPKDTLMISRTPEVTCVVVDVSHEDPEVKFNWYVDGVEVHNAKTKPREEQYASTYRVVSVLTVLHQDWLNGKEYKCKVSNKALPAPIEKTISKAKGQPREPQVYTLPPSRCELTKNQVSLSCAVKGFYPSDIAVEWESNGQPENNYKTTPPVLDSDGSFFLVSKLTVDKSRWQQGNVFSCSVMHEALHNHYTQKSLSLSPDYKDDDDK EPKSSDKTHTCPPCPAPELLGGPSVFLFPPKPKDTLMISRTPEVTCVVVDVSHEDPEVKFNWYVDGVEVHNAKTKPREEQYNSTYRVVSVLTVLHQDWLNGKEYKCKVSNKALPAPIEKTISKAKGQPREPQVCTLPPSRDELTKNQVSLWCLVKGFYPSDIAVEWESNGQPENNYKTTPPVLDSDGSFFLYSKLTVDKSRWQQGNVFSCSVMHEALHNRYTQKSLSLSP light: DIVMTQSPLSLPVTPGEPASISCRSSQSLVHSNRNTYLHWYQQKPGQAPRLLIYKVSNRFSGVPDRFSGSGSGTDFTLKISRVEAEDVGVYYCGQGTQVPYTFGQGTKLEIKRTVAAPSVFIFPPSDEQLKSGTASVVCLLNNFYPREAKVQWKVDNALQSGNSQESVTEQDSKDSTYSLSSTLTLSKADYEKHKVYACEVTHQGLSSPVTKSFNRGEC"
